These results are taken from PMC2656774 (Cell, 2009).

This assay deals with human eIF4A1, full-length (human, UniProt P60842 1-406). Description: SPR. In general terms: Surface plasmon resonance follows binding to a sensor surface in real time, without labels.
Sequence of human eIF4A1, full-length (P60842 whole entry): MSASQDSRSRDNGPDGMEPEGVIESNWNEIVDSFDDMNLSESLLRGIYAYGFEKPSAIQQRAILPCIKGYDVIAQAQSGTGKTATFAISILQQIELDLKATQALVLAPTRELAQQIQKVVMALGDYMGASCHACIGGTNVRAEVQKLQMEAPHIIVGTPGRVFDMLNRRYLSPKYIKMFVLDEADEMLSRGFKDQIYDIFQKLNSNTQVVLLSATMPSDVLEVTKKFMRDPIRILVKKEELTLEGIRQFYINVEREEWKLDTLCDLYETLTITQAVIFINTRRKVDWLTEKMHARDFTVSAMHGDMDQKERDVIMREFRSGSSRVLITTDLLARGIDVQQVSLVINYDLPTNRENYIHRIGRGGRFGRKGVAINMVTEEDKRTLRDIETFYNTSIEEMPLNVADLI

B1: human eIF4H isoform 2 (natural protein)
chain: not shown
Turning to B1, the binding result is reported as “binds”.
